Patent publication US20210115098A1

Molecular target: activin-like kinase 4 and/or 5 receptor (ALK4/5)
Assay: cell-based or functional assay

- Smad-2/3 responsive luciferase reporter, maximal response at 50 ng/mL relative to Mutant 1: 10 % reduction
Substance: Cumulin-like GDF9_H369N (Mutant 7) (from UniProt O60383 30-318) (ligand)
